Substrate: NC(=O)c1ccc[n+]([C@@H]2O[C@H](COP(=O)([O-])OP(=O)(O)OC[C@H]3O[C@@H](n4cnc5c(N)ncnc54)[C@H](O)[C@@H]3O)[C@@H](O)[C@H]2O)c1
Assay: Michaelis-Menten kinetics of NAD+ cleavage by purified SARM1-TIR, HPLC
Format: biochemical, Homo sapiens
Details: E642 is a putative key catalytic residue within the active site

B1: SARM1-TIR (Homo sapiens) (protein)
chain: DTPDVFISYRRNSGSQLASLLKVHLQLHGFSVFIDVEKLEAGKFEDKLIQSVMGARNFVLVLSPGALDKCMQDHDCKDWVHKEIVTALSCGKNIVPIIDGFEWPEPQVLPEDMQAVLTFNGIKWSHEYQEATIEKIIRFLQGRS
Km: 24 µM

From PMC6284238
